A short description of the data set: yeast display, Sf9 membrane polyspecificity reagent, FACS + sequencing; frameworks hold sequencing errors. The procedure, abridged: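 Synthetic nanobody libraries on Saccharomyces cerevisiae BJ5465 were galactose-induced for 36–48 hours, stained 1 hour at 4 °C with 10% biotinylated, detergent-solubilized Sf9 membrane reagent and enriched on streptavidin microbeads. FACS then separated cells into low and high (top ~1%) gates by anti-HA (expression) and streptavidin (reagent binding) fluorescence. Genes were colony-PCR amplified, MiSeq 2 × 250 sequenced and CDR-length filtered. A clone's polyreactivity label is that of its gate of origin.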
For the sequence “QVQLVESGGGLVQAGGSLRLSCSASGIIMDPNAMGWYRQAPGKERELVAGITRSGVSTYYSDSVKGRFTISRDNAKNTVYLLMNSLKPEDTAVYYCAKDRIYGSKGEDEDYWGQGSQVTVSS”, the “polyreactivity (PSR sort gate)” value was “low polyreactivity”.
With “QVQLVESGGGLVQAGGSLRLSCSASGITFGANTMGWYRQAPGKERELVAAITISGGITHYADSVKGRFTISRDHAKNTVYLQMNSLKPEDTAVYYCAAGAYWRLYPYRQRNGGRMYYWGQGTQVTVSS” the entry was “low polyreactivity”.
With “QVQLVESGGGLVQAGGSLRLSCSASGITFWLYDKGWYIQAPGKERELVARITYSGTSTYYADSVKGRFTISRDNAKNTVYLQMNSLEPEDTAVYYCAADLTYHYPRYITYEYWGQGTQVTVSS”, the “polyreactivity (PSR sort gate)” value was “low polyreactivity”.
With “QVQLVESGGGLVQAGGSLRLSCSASGLTFSYYAMGLYRQAPGTERELVAAITSSGGNTYYADSVKGRFTISRDNAKNTVYLQMNSLKPEDTAVYYCNAVVGLGYNYWGQGNQVTVSS” the entry was “high polyreactivity”.
As for “QVQLVESGGGLVQAGGSLRLSCSASGLTFYGYVMGWYRQAPGKERELVASISRSGRRTYYADSVKGRFTISRDNAKNTVYLQMNSLKPEDTAVYYCAAADHVGQEDDYWGLGTQVTVSS”, the “polyreactivity (PSR sort gate)” value is listed as “low polyreactivity”.
With “QVQLVESGGGLVQAGGSLRLSCSASGRIFAAYAMGWYRQAPGKERELVATITRGGSTYYADSVKGRFTISRDNAKNTVYLQMNSLKPKDTAVYYCAVKRGFTQYKPFNYWGQGTQVTVSS”, the “polyreactivity (PSR sort gate)” value is listed as “high polyreactivity”.
With “QVQLVESGGGLVQAGGSLRLSCSASGRIFPFNDMGWYRQAPGKEREFVADISDNGGSTYADSVKGRFTISRDNAKNTVYLQMNSLKPEDTAVYYCAADLLDISSYDGMDYWGQGTQVTVSS” the entry was “low polyreactivity”.
With “QVQLVESGGGLVQAGGSLRLSCSASGRIFSRYAMGWYRQAPGKERELVATISSGGGTYYADSVKGRFTISRDNAKNTVYLQMNSLKPEDTAVYYCATRYPRKLRVPYDYWGQGTQVTVSS”, the “polyreactivity (PSR sort gate)” value is recorded as “high polyreactivity”.
The same measure for “QVQLVESGGGLVQAGGSLRLSCSASGRTFEHNCMGWSRQAHGKERELVASITSVGSTDYADSVKGRFTISRDNAKNTVYLQMNSLKPEDTAVYYCAKTLGSQNYDFDYWGQGTQVTVSS”: “low polyreactivity”; for “QVQLVESGGGLVQAGGSLRLSCSASGRTFLGYAMGWYRQAPGKERELVAAITIGGGTYADSVKGRFTISRDNAKNTVYLQMNSLKPEDTAVYYCAKPGWYDGDYWGQGTQVTVSS”: “low polyreactivity”; for “QVQLVESGGGLVQAGGSLRLSCSASGRTFTVNAMGWYRQAPGKERELVATITYGGGSTYYADSVKGRFTISRDNAKNTVYVQMNSLKREDTAVYYCYADYWAVNYDYWGQGTQVTVSS”: “low polyreactivity”.
On to “QVQLVESGGGLVQAGGSLRLSCSASGRTFWRYAMGWYRQAPGKERELVAAISSGGRTNYADSVKGRFTISRDNAKNTVYLQMNSLIPEDTAVYYCAADSYYGYGYWGQGTQVTVSS”, for which the “polyreactivity (PSR sort gate)” value is “high polyreactivity”.
With “QVQLVESGGGLVQAGGSLRLSCSASGSIFDVFAMGWYRQAPGKERELVAGISRSGGSTYYADSVKGRFTISRDNAKNTVYLQMNSLKPEDTAVYYCAARYTYYRGRYDYWGQGTQVTVSS” the entry was “low polyreactivity”; with “QVQLVESGGGLVQAGGSLRLSCSASGSIFGFYAMGWYRQAPGKERELVAAIDSGDSTNYADSVKGRFTISRDHAKNTVYLQMNSQKPEDSAVYYCNAEAWWYFWFDYWGQGTQVTVSS”, “low polyreactivity”.
In the case of “QVQLVESGGGLVQAGGSLRLSCSASGSIFLIYAMGWYRQAPGKERELVATINRGDNTYYADSVKGRFTISRDNAKNSVYLQMNSLKPEDTAVYYCAARAYDLGYAGYDYWGQGTQVTVSS”, the “polyreactivity (PSR sort gate)” value is listed as “low polyreactivity”.
“QVQLVESGGGLVQAGGSLRLSCSASGSIFRSNAIGWYRQAPGKERELGAAISWSNDSTYYADSVKGRFTISRDNAKNTVYLQMNSLKPEDSAVYYCAAVGSGRYSGYDFLGQGTQVTVSS”: the “polyreactivity (PSR sort gate)” value is recorded as “high polyreactivity”.
The same measure for “QVQLVESGGGLVQAGGSLRLSCSASGSTFYYYAMGRYIQAPGKDRELVAAISSSGGTTYYADSVKGRFTISRDNAKNTVYLQMNSLKPEDTAVYYCAAQRYPSSLYQRFYYWGQGTQVTVSS”: “high polyreactivity”; for “QVQLVESGGGLVQAGGSLRLSCSASGYTIDLYAKGWYRQAPGKERELVAAISIRGGSTYYADSVKGRFTISRDNAKNTVYLQMNSLKPEDTAVYYCATVTYRRSYIAYRGTGDYDYWGQGTQVTVSS”: “low polyreactivity”.
With “QVQLVESGGGLVQAGGSLRLSCSAYGRTFNSYAMGWYRQAPGKERELVATISSGGSTKYADSVKGRFTISRDNAKNTVYLQMNSLKPEDTAVYYCNKVFPNLYIYVVRGLIEMDYWGQGTQVTVSS” the entry was “low polyreactivity”; with “QVQLVESGGGLVQAGGSLRLSCSSSGSIFVKNAMGWYRQAPGKERELVATISTGGRTYYADSVKGRFTISRDNAKNTVYLQMNSLIPEDTAVYYCATDFYPRYLLRTYRPYYYCGQGTQVTVSS”, “low polyreactivity”.
As for “QVQLVESGGGLVQAGGSLRLSCSSSGYTFYGYAMGWCRQAPGKERELVADISWSGTNTNYADSVKGRFTISRDNAKNTVYLQMNSLKQDDTAVYYGAAGYYYRGFYTEDYWGQGTQVTVSS”, the “polyreactivity (PSR sort gate)” value is listed as “high polyreactivity”.
The same measure for “QVQLVESGGGLVQAGGSLRLSCTASGITSGSYAMGWYRQEPGKESELVAAISNSGSTYYADSVKGRFTISRDNAKNTVYLQMNSLKPEDTEVYYCAAVTVGGHRSHRSGRSDYWGQGTQVTVSS”: “low polyreactivity”.
The same measure for “QVQLVESGGGLVQAGGSLRLSCTASGSIFSHNSMGWYRQAPGKERELVAAINQNGGITYYADSVKGRFTISRDNAKNTVYLQMNSLKPEDTAVYYCAARRYYRRPHKYDYWGQGTQVTVSS”: “high polyreactivity”.
Take “QVQLVESGGGLVQAGGSLRLSCTASGSTFVAYAMGWYRQAPGKERELVAAITSSGGRTYYADSVKGRFTISRDNAKNTVYLQMNSLKPEDTAVYYCNVYPSRRRAVGESERYYWGQGTQVTVSS”: the “polyreactivity (PSR sort gate)” value is on record as “high polyreactivity”.
Take “QVQLVESGGGLVQAGGSLRLSCVASGSISQTYDMGWYRQAPGKERELVAAISSSGASTYYADSVKGRFTISRDNAKNTVYLQMNSLKPEDTAVYYCNADKFRRYGYWGQGTQVTVSS”: the “polyreactivity (PSR sort gate)” value was “high polyreactivity”.
With “QVQLVESGGGLVQAGGSLRLSCVPPDSSSLSMLWDGIDRRLGKKGSWLPVLTSRGVGTYYADSVKGRFTISRDNAKNTVYLQMNSLKPEDTAVYYCYARYEVFYRYDYWGQGTQVTVSS” the entry was “low polyreactivity”.
The same measure for “QVQLVESGGGLVQAGGSLRLSCVPSARTFYVYAMGWYRQSPGKQSELVAAIDYSGGDTYYADSVKGRFTISRDNAKNTVYLQMNSLKPVDTAVYYCAAEEYIPIYRYDYEYWGQGTQVTVSS”: “high polyreactivity”.
In the case of “QVQLVESGGGLVQAGGSLRLSCVSSGFTFYFYAMGWYRQPPGKEREFVATITSNGGSTYYADSVKGRFTISRDNAKNTDYLQINSLKPEDTAVYYCNAGRYVRWWWYSPDDYWGQGTQVTVSS”, the “polyreactivity (PSR sort gate)” value is on record as “high polyreactivity”.
On to “QVQLVESGGGLVQAGGSLRLSFAASGFIFGLNAKGWYRQAPAKERELVAAIRWRGDTTYYADSVKGRFTISRDNAKNTVYLQMKSLKPEDTAVYSCNAVVVPSRYDYWGQGTQVTVSS”, for which the “polyreactivity (PSR sort gate)” value is on record as “low polyreactivity”.
For “QVQLVESGGGLVQAGGSLRLSFAASGFIFPYYAMGWYRQAPGKERELVAAITSSGGSTYYADSVKGRFTISRDNAKNTVYLQMNSLKPEDTAVYYCNAYGRRTREYDYWGQGTQVTVSS”, the “polyreactivity (PSR sort gate)” value is given as “high polyreactivity”.
The same measure for “QVQLVESGGGLVQAGGSLRLSFAASGFTFWKNAMGWYRQAPGKERELVATISNGGNTYYADSVKGRFTISRDNAKNTVYLQMNSLKPEDTAVYYCATGYPSDLGREFDYWGQGIQVTVSS”: “high polyreactivity”; for “QVQLVESGGGLVQAGGSLRLSFAASGITFDHYAMGWYRQAPGKEREFVAAIDDIGGDTYYADSVKGRFTISRDNAKNTVYLQMNSLKPEDTAVYYCAADYGYYSRFYYWGQGTQVTVSS”: “low polyreactivity”; for “QVQLVESGGGLVQAGGSLRLSFAASGITFTVYTMGWNRQAHGKVRELVPTINSSGSTYYADSVKGRFTISRDNAKNRVYLQMNSLKPEDTAVYYCAAEYWINRDLMDYWGQGTQVTVSS”: “high polyreactivity”.
Take “QVQLVESGGGLVQAGGSLRLSFAASGITFYYYTMGWYRQAPGKERELVAGITRGGRTYYADSVKGRFTISRDNSKNSVYLQMNSLKPEDTAVYYFNADPWWRFDYWGQGTQVTVSS”: the “polyreactivity (PSR sort gate)” value is “low polyreactivity”.
With “QVQLVESGGGLVQAGGSLRLSFAASGITITYYAMGWYRQAPGKERELVAGITNGRSTYYADSVKGRFTISRDNAKNTVYLQMNSLKPEDTAVYYCAAYVWSHSVGHDYWGQGTQVTVSS” the entry was “low polyreactivity”.
The same measure for “QVQLVESGGGLVQAGGSLRLSFAASGNILKSYAMGWYRQAHGKERELVAAISSSGGSTYYADSVKGRFTISRDNAKNSVYLQMNSLKPEDTAVYYCNAGAKSGKYYYWGQGTKVTVSS”: “low polyreactivity”.
For the sequence “QVQLVESGGGLVQAGGSLRLSFAASGRIFGTNTMGWYRQATGKERELVAGISSSGDSTYYADSVKGRFTISRDKAKNTVYLQINSLKPEDTAVYYCAARKGEFWLPQGGYNYWGQGTQVTVSS”, the “polyreactivity (PSR sort gate)” value is “low polyreactivity”.
In the case of “QVQLVESGGGLVQAGGSLRLSFAASGRIFSDNAMGWYRQAPGKERELVATINYSGGSTYYADSVKGRFTISRDNAKNTFYLQMNSLKPEDTAVYYCATRIPHRIIYYDYDYWGQGTQVTVSS”, the “polyreactivity (PSR sort gate)” value was “low polyreactivity”.
“QVQLVESGGGLVQAGGSLRLSFAASGRTFGEYTMGWYRQATGKERELVAAISSAGRTNYADSVKGRFTISRDNAKNTVYLQMNSLKPEDTAVYYCAADWTDDVPGYDYWGQGTQVTVSS”: the “polyreactivity (PSR sort gate)” value is “low polyreactivity”.
Take “QVQLVESGGGLVQAGGSLRLSFAASGRTFGKNAMGWYRQAPGKEREFVAAITSRGGSTYYADSVKGRFTISRDNAKNTVYLQMNSLKPEDTAVYYCNREYKRPSQRTEHYYWGQGTQVTVSS”: the “polyreactivity (PSR sort gate)” value is “low polyreactivity”.
The same measure for “QVQLVESGGGLVQAGGSLRLSFAASGRTFIGYAMGWSRQAPGKERELVAGISWSGGSTYYADSVKGRFTISRDNAKNTVYLQMNSLKPEDTAVYFCAARGRWSTEYRYWGQGTQVTVSS”: “low polyreactivity”.

For the origin of these results see the nanobody polyreactivity screen of Harvey et al. (2022).
